Reference: US20250277030A1, “ANTI-NAPI2B ANTIBODIES AND METHODS OF USE” (Zymeworks BC Inc., priority 2022, published 2025)

What was measured:
[1] = AC-SINS self-aggregation propensity; assay type: physicochemical; conditions: 0.05 mg/mL in PBS pH 7.4; cutoff 10 nm = high self-aggregation propensity
Method: The isoelectric point was measured by capillary isoelectric focusing (cIEF), the propensity for self-aggregation was measured by Affinity-capture self-interaction nanoparticle spectroscopy (AC-SINS) and non-specific binding was measured by NS-ELISA, as described below.
AC-SINS method was carried out in a 384-well plate format (Corning®#3702). Initially, 20 nm gold nanoparticles (Ted Pella, Inc., #15705) washed with 0.22 μm filtered Gibco™ Distilled Water were coated with a mixture of capture antibody—80% AffiniPure Goat Anti-Human IgG (H+L) (Jackson ImmunoResearch Laboratories® #109-005-088), and the non-capture antibody −20% ChromPure Goat IgG, whole molecule (Jackson ImmunoResearch Laboratories® #005-000-003), that were initially buffer exchanged into 20 mM sodium acetate pH 4.3 and diluted to 0.4 mg/mL. […] The absorbance was read from 450-700 nm at 1 nm increments, and a Microsoft Excel macro was used to identify the max absorbance, smooth the data, and fit the data using a second-order polynomial. The Alambda (nm) was calculated based on the smoothed max absorbance of the average blank (PBS alone) subtracted from the smoothed max absorbance of the antibody sample to determine the antibody AC-SINS score. Antibody-antibody interactions directly correlate with the shift in maximum absorbance wavelength of gold nanoparticles coated with the antibody of interest. […]

[2] = molecular target: T1, NaPi2b expressed on IGROV-1 cells (Homo sapiens, UniProt O95436); assay: Cellular binding of bivalent antibodies to IGROV-1 cells by flow cytometry (Example 13); conditions: IGROV-1, 24 hours at 4° C., NB = no cellular binding
T1 construct: IGROV-1 cells express endogenous NaPi2b at a high level; endogenous in cells; host or cells: IGROV-1
T1 sequence (O95436 1-690): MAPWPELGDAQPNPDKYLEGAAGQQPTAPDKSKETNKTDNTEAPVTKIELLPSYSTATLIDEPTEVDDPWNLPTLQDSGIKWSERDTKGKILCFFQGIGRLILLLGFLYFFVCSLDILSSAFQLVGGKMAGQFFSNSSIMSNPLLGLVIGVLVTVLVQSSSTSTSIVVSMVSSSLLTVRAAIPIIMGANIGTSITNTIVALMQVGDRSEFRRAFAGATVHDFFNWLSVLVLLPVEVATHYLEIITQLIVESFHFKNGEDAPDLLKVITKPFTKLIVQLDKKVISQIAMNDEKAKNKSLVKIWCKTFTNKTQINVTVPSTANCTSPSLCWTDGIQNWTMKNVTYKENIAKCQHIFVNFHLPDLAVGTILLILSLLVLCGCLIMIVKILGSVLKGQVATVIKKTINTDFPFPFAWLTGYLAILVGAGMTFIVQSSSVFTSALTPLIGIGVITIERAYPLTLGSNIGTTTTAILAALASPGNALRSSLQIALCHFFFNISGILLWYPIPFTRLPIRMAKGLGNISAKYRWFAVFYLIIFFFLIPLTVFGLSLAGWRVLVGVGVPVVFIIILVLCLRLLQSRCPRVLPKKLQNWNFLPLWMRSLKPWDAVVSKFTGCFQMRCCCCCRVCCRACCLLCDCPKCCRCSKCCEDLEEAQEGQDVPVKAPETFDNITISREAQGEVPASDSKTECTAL
Method: IGROV-1 cells express endogenous NaPi2b at a high level.
(§1) Briefly, cells were seeded at 50,000 cells/well in conical-bottom 96-well plates and treated with test antibody for 24 hours at 4° C. to prevent internalization. Palivizumab (anti-RSV antibody, v22277) was included as a negative control. […] Following incubation, cells were washed and stained with anti-Human IgG Fc AF647 conjugate (Jackson Immuno Research Labs, West Grove, PA; Cat. No. 109-605-098) at 4° C. for 30 min. Following incubation and washing, fluorescence was detected by flow cytometry on a BD LSRFortessa™ Cell Analyzer (BD Biosciences, Franklin Lake, NJ) with 1,000 minimum events collected per well. The AF647/APC-A GeoMean (fluorescence signal geometric mean, proportional to anti-Human AF647 binding) was calculated for the live cell population using FlowJo™ Version 10.8.1 (BD Biosciences, Franklin Lake, NJ) and plotted for each test antibody using GraphPad Prism Version 9 (GraphPad Software, San Diego, CA).

[3] = molecular target: T2, NaPi2b expressed on TOV-21G cells (Homo sapiens, UniProt O95436); assay: Cellular binding to TOV-21G cells by flow cytometry (Example 19); conditions: NB = no binding (apparent Kd >150 nM)
T2 construct: IGROV-1 and TOV-21G cells express endogenous NaPi2b at high and moderate levels, respectively; endogenous in cells; host or cells: TOV-21G
T2 sequence (O95436 1-690): T1 sequence (O95436 1-690)
Method: as §1
The ability of the humanized antibody variants v38591 and v29456 to bind to NaPi2b expressed on cells was assessed on endogenous NaPi2b-expressing tumor cell lines IGROV-1 (ovarian adenocarcinoma) and TOV-21G (ovarian carcinoma) by flow cytometry. IGROV-1 and TOV-21G cells express endogenous NaPi2b at high and moderate levels, respectively, as described in Example 10.
Cellular binding was performed according to methods described in Example 13.

B1: v29456: humanized anti-NaPi2b IgG1/kappa antibody H1L2; VH SEQ ID NO:24, VL SEQ ID NO:29 (antibody, V domains shown)
VH: QVQLVQSGAEVKKPGASVKVSCKASGFTFTSYNVHWVRQAPGQGLEWMGAISPGNGDLSYAQKFQGRVTMTRDTSTSTVYMELSSLRSEDTAVYYCARGRTGMGAVDYWGQGTLVTVSS
VL: DVQMTQSPSSLSASVGDRVTITCRASQDVYSYLNWYQQKPGKAVKLLIYYTSRLQSGVPSRFSGSGSGTDYTLTISSLQPEDFATYYCQQYNIFPWTFGQGTKLEIK
modifications: v29452, v29456, v29460 VH (H1); v29453, v29454, v29455, v29456 VL (L2)
- AC-SINS Δlambda (nm) [1]: 2.5 nm
- Bmax (MFI) [2]: 40,867 MFI
- Curve Hill Slope (h) [2]: 1.1
- Kd ([2]; apparent Kd): 1.1 nM
- Bmax [3]: 11,271
- Curve Hill Slope (h) [3]: 1.1
- Kd [3]: 0.6 nM
